The source of these data is paper doi:10.1101/2025.01.14.632894 (bioRxiv, 2025).

Data set [1] concerns the molecule itself. Put plainly: mass photometry.
Data set [2] concerns the molecule itself. Put plainly: SAXS.

B1: CCDC6-RET fusion product (CCDC6 residues 1-101 fused to RET residues 713-1072), wild type, apo (un-phosphorylated) state (enzyme, human, UniProt Q16204 1-101, looked up)
chain: MADSASESDTDGAGGNSSSSAAMQSSCSSTSGGGGGGGGGGGGGKSGGIVISPFRLEELTNRLASLQQENKVLKIELETYKLKCKALQEENRDLRKASVTIEDPKWEFPRKNLVLGKTLGEGEFGKVVKATAFHLKGRAGYTTVAVKMLKENASPSELRDLLSEFNVLKQVNHPHVIKLYGACSQDGPLLLIVEYAKYGSLRGFLRESRKVGPGYLGSGGSRNSSSLDHPDERALTMGDLISFAWQISQGMQYLAEMKLVHRDLAARNILVAEGRKMKISDFGLSRDVYEEDSYVKRSQGRIPVKWMAIESLFDHIYTTQSDVWSFGVLLWEIVTLGGNPYPGIPPERLFNLLKTGHRMERPDNCSEEMYRLMLQCWKQEPDKRPVFADISKDLEKMMVKRRDYLDLAASTPSDSLIYDDGLSEEETPLVDCNNAPLPRALPSTWIENKLYGRISHAFTRF
modifications: activation loop Tyr 900 and c-terminal Ser 1034 showed high levels of phosphorylation in the basal state
The term stoichiometry N denotes a count of units in the complex or per binding partner. For B1, the “stoichiometry N” value in data set [1] was 2.

B2: CCDC6-RET lacking the c-terminal segment of RET (CCDC6 1-101 fused to RET aa 713-1013) (enzyme, human, UniProt Q16204 1-101, looked up)
chain: MADSASESDTDGAGGNSSSSAAMQSSCSSTSGGGGGGGGGGGGGKSGGIVISPFRLEELTNRLASLQQENKVLKIELETYKLKCKALQEENRDLRKASVTIEDPKWEFPRKNLVLGKTLGEGEFGKVVKATAFHLKGRAGYTTVAVKMLKENASPSELRDLLSEFNVLKQVNHPHVIKLYGACSQDGPLLLIVEYAKYGSLRGFLRESRKVGPGYLGSGGSRNSSSLDHPDERALTMGDLISFAWQISQGMQYLAEMKLVHRDLAARNILVAEGRKMKISDFGLSRDVYEEDSYVKRSQGRIPVKWMAIESLFDHIYTTQSDVWSFGVLLWEIVTLGGNPYPGIPPERLFNLLKTGHRMERPDNCSEEMYRLMLQCWKQEPDKRPVFADISKDLEKMMVKRR
B2: the binding result in data set [2] is “binds”.
